Results: US20120202221A1 (ACTELION PHARMACEUTICALS, published 2012)

T1: recombinant human GPR1 receptor (human, UniProt P46091 1-355)
T1 sequence: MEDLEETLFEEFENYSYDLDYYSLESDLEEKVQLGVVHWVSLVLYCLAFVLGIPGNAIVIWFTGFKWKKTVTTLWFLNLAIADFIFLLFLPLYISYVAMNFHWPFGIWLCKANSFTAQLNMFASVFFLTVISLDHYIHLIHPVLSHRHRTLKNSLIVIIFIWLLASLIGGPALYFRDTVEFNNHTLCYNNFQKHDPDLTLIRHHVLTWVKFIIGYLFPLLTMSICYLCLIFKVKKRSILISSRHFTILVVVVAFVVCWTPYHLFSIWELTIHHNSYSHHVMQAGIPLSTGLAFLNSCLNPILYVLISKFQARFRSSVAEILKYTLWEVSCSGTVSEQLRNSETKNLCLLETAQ


What follows are molecules tested against T1, recombinant human GPR1 receptor (assay: cell-based or functional assay).

EC50 of beta-arrestin2 recruitment (agonistic activity), CHO-K1-hGPR1-Beta-arrestin 2 PathHunter cells	Molecule
92.8 nM	d-Ser14-Humanin (peptide)
46.1 nM	MAPRGFSCLLLLTGEIDLPVKRRA [Gly14-Humanin]
55.6 nM	MAPRGFSALLLLTSEIDLPVKRRA [Ala8-Humanin]
60.9 nM	MAPRGFSCLLLLTSEIDLPVKRRA [Humanin]
